The values that follow come from publication PMC12148503, “Molecular Basis of Interchain Disulfide Bond Formation in BMP-9 and BMP-10” (Journal of molecular biology, 2025).

B1: Pro-(X)-BMP-9 [human] / itself (parent)
chain: KPLQSWGRGSAGGNAHSPLGVPGGGLPEHTFNLKMFLENVKVDFLRSLNLSGVPSQDKTRVEPPQYMIDLYNRYTSDKSTTPASNIVRSFSMEDAISITATEDFPFQKHILLFNISIPRHEQITRAELRLYVSCQNHVDPSHDLKGSVVIYDVLDGTDAWDSATETKTFLVSQDIQDEGWETLEVSSAVKRWVRSDSTKSKNKLEVTVESHRKGCDTLDISVPPGSRNLPFFVVFSNDHSSGTKETRLELREMISHEQESVLKKLSKDGSTEAGESSHEEDTDGHVAAGSTLAIEGRSSGAGSHCQKTSLRVNFEDIGWDSWIIAPKEYEAYECKGGCFFPLADDVTPTKHAIVQTLVHLKFPTKVGKACCVPTKLSPISVLYKDDMGVPTLKYHYEGMSVAECGCR

The variants in this assay derive from B1. Kind of assay: SDS-PAGE densitometry. As to conditions: with itself; IMAC column purified Pro-BMP-9.
Turning to KPLQSWGRGSAGGNAHSPLGVPGGGLPEHTFNLKMFLENVKVDFLRSLNLSGVPSQDKTRVEPPQYMIDLYNRYTSDKSTTPASNIVRSFSMEDAISITATEDFPFQKHILLFNISIPRHEQITRAELRLYVSCQNHVDPSHDLKGSVVIYDVLDGTDAWDSATETKTFLVSQDIQDEGWETLEVSSAVKRWVRSDSTKSKNKLEVTVESHRKGCDTLDISVPPGSRNLPFFVVFSNDHSSGTKETRLELREMISHEQESVLKKLSKDGSTEAGESSHEEDTDGHVAAGSTLAIEGRSSGAGSHCQKTSLRVNFEDIGWDSWIIAPKEYEAYECRGGCFFPLADDVTPTKHAIVQTLVHLKFPTKVGKACCVPTKLSPISVLYKDDMGVPTLKYHYEGMSVAECGCR [chain 1 K335R], the screen value was determined as 0.7.
Take KPLQSWGRGSAGGNAHSPLGVPGGGLPEHTFNLKMFLENVKVDFLRSLNLSGVPSQDKTRVEPPQYMIDLYNRYTSDKSTTPASNIVRSFSMEDAISITATEDFPFQKHILLFNISIPRHEQITRAELRLYVSCQNHVDPSHDLKGSVVIYDVLDGTDAWDSATETKTFLVSQDIQDEGWETLEVSSAVKRWVRSDSTKSKNKLEVTVESHRKGCDTLDISVPPGSRNLPFFVVFSNDHSSGTKETRLELREMISHEQESVLKKLSKDGSTEAGESSHEEDTDGHVAAGSTLAIEGRSSGAGSHCQKTSLRVNFEDIGWDSWIIAPKEYEAYECKGGCFFPLADDVTPTKHAIVQTLVHLKFPTKVSKACCVPTKLSPISVLYKDDMGVPTLKYHYEGMSVAECGCR [chain 1 G367S]: the screen value was 1.29.
Regarding KPLQSWGRGSAGGNAHSPLGVPGGGLPEHTFNLKMFLENVKVDFLRSLNLSGVPSQDKTRVEPPQYMIDLYNRYTSDKSTTPASNIVRSFSMEDAISITATEDFPFQKHILLFNISIPRHEQITRAELRLYVSCQNHVDPSHDLKGSVVIYDVLDGTDAWDSATETKTFLVSQDIQDEGWETLEVSSAVKRWVRSDSTKSKNKLEVTVESHRKGCDTLDISVPPGSRNLPFFVVFSNDHSSGTKETRLELREMISHEQESVLKKLSKDGSTEAGESSHEEDTDGHVAAGSTLAIEGRSSGAGSHCQKTSLRVNFEDIGWDSWIIAPKEYEAYECRGGCFFPLADDVTPTKHAIVQTLVHLKFPTKVSKACCVPTKLSPISVLYKDDMGVPTLKYHYEGMSVAECGCR [chain 1 K335R G367S], the screen value was 3.24.
